# Target: TAP-tagged Lid1 (Apc4), subunit of the APC/C (S. pombe) (UniProt O42839)
# Experiment: co-IP; Apc4-TAP pulled down with IgG Dynabeads from extracts of cdc25-22 cells released from G2 into mitosis at 25°C, carbendazim added after 20 min, time points every 15 min; blots for Mad3p (anti-GFP) and Mad2p; lysis buffer 50 mM HEPES pH 7.5, 75 mM KCl, 0.1% TritonX-100; strains wild type, mad3-KEN1, mad3-KEN2, mad3-C9A, mad2-S92A, mad3-C9A mad2-S92A
# UniProt O42839, sequence (O42839 whole entry): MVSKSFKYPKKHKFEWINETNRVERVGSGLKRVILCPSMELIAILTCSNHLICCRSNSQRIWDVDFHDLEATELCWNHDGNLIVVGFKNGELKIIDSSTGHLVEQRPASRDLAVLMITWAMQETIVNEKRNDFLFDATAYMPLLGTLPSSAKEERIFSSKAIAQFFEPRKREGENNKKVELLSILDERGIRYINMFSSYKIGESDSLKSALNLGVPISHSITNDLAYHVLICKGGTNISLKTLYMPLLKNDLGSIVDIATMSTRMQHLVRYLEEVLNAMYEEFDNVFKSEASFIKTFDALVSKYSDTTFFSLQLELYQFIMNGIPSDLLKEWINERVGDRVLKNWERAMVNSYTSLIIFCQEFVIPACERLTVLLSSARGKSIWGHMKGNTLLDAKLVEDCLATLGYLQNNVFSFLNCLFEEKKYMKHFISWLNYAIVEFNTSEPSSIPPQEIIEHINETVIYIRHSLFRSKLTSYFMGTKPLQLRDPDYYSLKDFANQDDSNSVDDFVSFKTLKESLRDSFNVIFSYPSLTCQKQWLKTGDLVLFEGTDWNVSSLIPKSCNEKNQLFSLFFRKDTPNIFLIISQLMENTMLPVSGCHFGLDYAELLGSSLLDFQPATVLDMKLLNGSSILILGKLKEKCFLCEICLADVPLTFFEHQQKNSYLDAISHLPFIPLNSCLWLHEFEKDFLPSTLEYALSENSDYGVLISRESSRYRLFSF
"level bound to the APC/C as percent of wild type (mad3-C9A mad2-S92A strain, 45 and 60 min) [%]","MCC-APC/C level as percent of wild type, 60 min [%]",Substance
20,,Mad3-C9A tagged with GFP (from UniProt O59767 1-310) (natural protein)
,65,Mad3-KEN2 mutant tagged with GFP (from UniProt O59767 1-310) (natural protein)
